Measurements taken from US20240116985A1 (published 2024).
Starred links: 1 amine or outer side, 2 acyl side, 3 side chain; linkers in the order of their positions; H or OH if unused. Positions of bridges follow the written chain, without caps; N, C: chain ends. Non-standard residues stand in square brackets, D forms with d. Primed or numbered codes have the meaning given here. B5(10) = 2-amino-2-(pent-4-en-1-yl)hept-6-enoic acid, bis(4-pentenyl)glycine, stitching residue bearing both staples, C=CCCCC(CCCC=C)(N[*:1])C(=O)[*:2]; PyrS2″ = (S)-3-amino-1-((pent-4-en-1-yloxy)carbonyl)pyrrolidine-3-carboxylic acid (stapling residue), C=CCCCOC(=O)N1CC[C@@](N[*:1])(C(=O)[*:2])C1; B5(16) = 2-amino-2-(pent-4-en-1-yl)hept-6-enoic acid = 2,2-bis(4-pentenyl)glycine (stitching residue), C=CCCCC(CCCC=C)(N[*:1])C(=O)[*:2]; B5(4) = 2,2-bis(4-pentenyl)glycine = 2-amino-2-(pent-4-en-1-yl)hept-6-enoic acid (stitching residue), C=CCCCC(CCCC=C)(N[*:1])C(=O)[*:2]; PyrS2 = (S)-3-amino-1-((pent-4-en-1-yloxy)carbonyl)pyrrolidine-3-carboxylic acid, C=CCCCOC(=O)N1CC[C@@](N[*:1])(C(=O)[*:2])C1; Phe(2-Cl) = N[C@@H](Cc1ccccc1Cl)C(=O)O; Bta = N[C@@H](Cc1csc2ccccc12)C(=O)O; αAllylPro = C=CC[C@@]1(C(=O)O)CCCN1; tBuAla = CC(C)(C)C[C@H](N)C(=O)O; S8 = C=CCCCCCC[C@](C)(N)C(=O)O

Legend:
Bcat-Halo = biological target: T1, Bcat-Halo (UniProt P35222 1-781); assay: NanoBRET in HEK293 cells, Bcat-Halo/TCF4-Luc (competitor TCF4-Luc); absolute IC50
T1 construct: Construct transfected into HEK293 cells for NanoBRET; not shown: HaloTag fusion partner
T1 sequence (looked up): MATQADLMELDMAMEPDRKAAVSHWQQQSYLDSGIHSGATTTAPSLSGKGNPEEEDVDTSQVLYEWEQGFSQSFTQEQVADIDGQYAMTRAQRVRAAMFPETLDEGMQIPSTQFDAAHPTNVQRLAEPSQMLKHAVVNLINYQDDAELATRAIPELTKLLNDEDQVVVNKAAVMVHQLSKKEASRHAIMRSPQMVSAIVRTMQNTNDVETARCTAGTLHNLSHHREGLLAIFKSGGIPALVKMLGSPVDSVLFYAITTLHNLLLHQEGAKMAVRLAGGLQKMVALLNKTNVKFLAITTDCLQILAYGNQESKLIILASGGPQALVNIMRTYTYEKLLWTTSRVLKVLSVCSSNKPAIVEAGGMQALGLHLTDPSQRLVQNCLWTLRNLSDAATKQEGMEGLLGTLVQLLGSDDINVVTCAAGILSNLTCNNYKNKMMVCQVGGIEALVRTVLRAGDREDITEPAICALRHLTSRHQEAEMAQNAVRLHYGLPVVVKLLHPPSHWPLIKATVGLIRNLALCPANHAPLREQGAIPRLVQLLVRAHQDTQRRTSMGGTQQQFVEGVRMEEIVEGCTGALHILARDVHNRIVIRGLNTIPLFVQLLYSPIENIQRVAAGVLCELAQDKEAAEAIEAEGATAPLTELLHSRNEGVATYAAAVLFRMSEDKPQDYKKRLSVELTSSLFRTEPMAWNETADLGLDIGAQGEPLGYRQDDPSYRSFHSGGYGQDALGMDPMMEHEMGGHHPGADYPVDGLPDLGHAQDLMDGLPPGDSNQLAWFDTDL

[1] = biological target: T2, full-length beta-Catenin (Uniprot ID P35222) (Homo sapiens (Human), UniProt P35222 2-781); assay: fluorescence polarization competition; full-length beta-catenin, competitor 5FAM-TCF4(10-53) probe
T2 construct: Also used here for the endogenous beta-catenin of the DLD1 TCF reporter cells; also called bCat; B-Catenin
T2 sequence: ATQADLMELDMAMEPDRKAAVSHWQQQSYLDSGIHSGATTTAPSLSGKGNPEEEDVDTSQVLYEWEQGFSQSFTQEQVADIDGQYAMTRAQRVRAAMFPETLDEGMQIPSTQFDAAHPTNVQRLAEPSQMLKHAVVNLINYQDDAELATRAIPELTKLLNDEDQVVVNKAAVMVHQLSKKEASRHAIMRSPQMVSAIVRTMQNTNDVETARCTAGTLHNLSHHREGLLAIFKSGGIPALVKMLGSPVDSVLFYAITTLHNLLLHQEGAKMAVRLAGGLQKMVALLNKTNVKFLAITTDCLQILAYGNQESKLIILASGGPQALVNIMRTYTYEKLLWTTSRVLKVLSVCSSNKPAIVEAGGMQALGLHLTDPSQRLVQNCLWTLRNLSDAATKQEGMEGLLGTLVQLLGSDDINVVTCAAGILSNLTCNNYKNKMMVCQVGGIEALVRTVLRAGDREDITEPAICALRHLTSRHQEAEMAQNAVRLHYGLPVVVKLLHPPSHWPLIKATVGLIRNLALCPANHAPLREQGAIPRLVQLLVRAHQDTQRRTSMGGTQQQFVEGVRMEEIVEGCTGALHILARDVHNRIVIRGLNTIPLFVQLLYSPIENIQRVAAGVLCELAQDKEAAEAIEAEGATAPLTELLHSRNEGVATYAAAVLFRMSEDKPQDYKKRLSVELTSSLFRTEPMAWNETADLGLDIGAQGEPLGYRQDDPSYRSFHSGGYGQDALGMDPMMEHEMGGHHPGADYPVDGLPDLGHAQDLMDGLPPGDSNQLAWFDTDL
How it was run: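 Readings followed a light-protected 60-minute incubation at 20° C. Each read was done in duplicate. Curves were fit with a 1:1 binding model including hill slope, and stated concentrations are final.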

[2] = biological target: B-cat-Halo (beta-catenin HaloTag construct expressed in HEK293 cells) (UniProt P35222 1-781); assay: cell-based or functional assay
[3] = biological target: T3, beta-catenin in DLD1 TCF/LEF luciferase reporter cells (UniProt P35222 1-781); assay: cell-based or functional assay
T3 sequence (looked up): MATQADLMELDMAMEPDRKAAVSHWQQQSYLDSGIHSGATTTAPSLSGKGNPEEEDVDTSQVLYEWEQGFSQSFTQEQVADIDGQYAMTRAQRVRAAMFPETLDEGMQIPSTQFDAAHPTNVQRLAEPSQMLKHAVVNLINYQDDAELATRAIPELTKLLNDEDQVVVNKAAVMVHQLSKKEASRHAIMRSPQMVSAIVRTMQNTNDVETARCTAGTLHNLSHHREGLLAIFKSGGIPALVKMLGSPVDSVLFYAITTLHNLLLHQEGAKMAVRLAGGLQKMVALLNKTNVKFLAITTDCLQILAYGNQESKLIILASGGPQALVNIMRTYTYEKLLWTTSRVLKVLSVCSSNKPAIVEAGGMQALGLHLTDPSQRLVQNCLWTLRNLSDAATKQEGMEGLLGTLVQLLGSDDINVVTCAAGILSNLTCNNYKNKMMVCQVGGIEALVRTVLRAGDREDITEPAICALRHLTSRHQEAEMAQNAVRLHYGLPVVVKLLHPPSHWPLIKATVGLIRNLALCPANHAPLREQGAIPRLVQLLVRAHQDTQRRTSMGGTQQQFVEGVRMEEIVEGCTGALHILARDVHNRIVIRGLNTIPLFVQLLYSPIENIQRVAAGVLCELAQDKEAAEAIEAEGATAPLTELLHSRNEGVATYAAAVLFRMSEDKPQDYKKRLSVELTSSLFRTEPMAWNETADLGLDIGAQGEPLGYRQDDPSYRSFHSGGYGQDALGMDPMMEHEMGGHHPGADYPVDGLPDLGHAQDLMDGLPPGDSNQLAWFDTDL

[4] = biological target: T4, full-length beta-Catenin (Uniprot ID P35222) (Homo sapiens (Human), UniProt P35222 1-781); assay: fluorescence polarization competition against 5FAM-TCF4(10-53) on full-length beta-catenin
T4 construct: also called bCat
T4 sequence: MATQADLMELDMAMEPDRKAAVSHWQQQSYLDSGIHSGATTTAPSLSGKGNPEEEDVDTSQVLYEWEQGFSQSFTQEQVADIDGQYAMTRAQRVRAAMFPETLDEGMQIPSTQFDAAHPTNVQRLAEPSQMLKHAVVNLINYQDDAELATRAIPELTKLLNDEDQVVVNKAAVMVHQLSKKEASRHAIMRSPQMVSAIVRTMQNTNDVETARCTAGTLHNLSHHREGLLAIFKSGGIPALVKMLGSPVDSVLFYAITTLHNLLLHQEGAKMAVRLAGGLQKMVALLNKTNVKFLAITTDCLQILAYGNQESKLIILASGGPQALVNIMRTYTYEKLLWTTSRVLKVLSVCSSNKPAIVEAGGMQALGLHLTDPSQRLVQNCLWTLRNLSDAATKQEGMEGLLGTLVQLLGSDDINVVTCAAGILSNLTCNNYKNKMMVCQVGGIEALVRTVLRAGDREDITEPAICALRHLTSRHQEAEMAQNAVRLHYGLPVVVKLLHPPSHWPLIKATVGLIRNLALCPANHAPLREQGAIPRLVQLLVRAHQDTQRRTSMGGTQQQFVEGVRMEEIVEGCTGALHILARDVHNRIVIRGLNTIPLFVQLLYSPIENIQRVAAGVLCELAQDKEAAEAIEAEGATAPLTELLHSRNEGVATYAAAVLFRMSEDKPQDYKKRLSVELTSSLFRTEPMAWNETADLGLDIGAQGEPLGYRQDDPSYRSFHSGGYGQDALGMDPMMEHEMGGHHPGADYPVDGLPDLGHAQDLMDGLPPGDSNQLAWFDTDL
Experimental: The plate was incubated protected from light for 60 minutes at 20° C. prior to read. Reads were performed on a CLARIOstar plate reader (BMG Labtech) in duplicate, and data were fitted to a 1:1 binding model with hill slope using an in-house script. All provided concentrations are final concentrations.

Binder	IC50 (Bcat-Halo)	EC50 [1]	NanoBRET Abs IC50 [2]	DLD1 4% Abs IC50 [3]	IC50 [4]
Ac-[αAllylPro]DL[B5(4)]DEAAFN[S8]F[Bta]N-NH2 (staple 1-4, 4-11; also: olefin E/Z not assigned, earlier-eluting staple isomer, Stapled peptide composition) [I-752]	9.9 µM	16 nM	–	–	–
Ac-[αAllylPro]DL[B5(4)]DEAAFN[S8]F[Bta]N-NH2 (staple 1-4, 4-11; also: olefin E/Z not assigned, later-eluting staple isomer, Stapled peptide composition) [I-753]	10 µM	14 nM	–	–	–
Ac-[αAllylPro]D[tBuAla][B5(16)]DDAAFS[PyrS2″][Phe(2-Cl)][Bta]S-NH2 (staple 1-4, 4-11; not fully specified; printed as Ac-PL3-Asp-Npg-B5-Asp-Asp-Ala-Ala-Phe-Ser-PyrS2-2C1F-BztA-Ser-NH2) [I-1019: Ac-PL3-Asp-Npg-B5-Asp-Asp-Ala-Ala-Phe-Ser-PyrS2-2C1F-BztA-Ser-NH2]	–	–	9.6 µM	7.8 µM	–
Ac-[αAllylPro]NA[B5(10)]DTAAFL[PyrS2]F[Bta]Q-NH2 (staple 1-4, 4-11; not fully specified; printed as Ac-PL3-Asn-Ala-B5-Asp-Thr-Ala-Ala-Phe-Leu-PyrS2-Phe-BztA-Gln-NH2, Stapled peptide) [I-1287]	–	–	–	–	10 µM
